Values joined by “and” are separate entries in the source; they are usually repeats but may differ in a detail not shown here. Equal entries are not always repeated.

The target of this assay is C-C Chemokine Receptor 5 (CC-CKR5) (human) (UniProt P51681). Description: cell-based or functional assay.
On to “MIP-1α (from UniProt P10147 23-92) (ligand)”, for which the reduction of infection of HeLa cells expressing CD4 and CC-CKR-5 by macrophage-tropic virus; mixture of chemokines is 80% and 70%. As to “ADA Env (macrophage-tropic HIV-1 envelope glycoprotein)”, the sensitivity of 293T cells co-expressing CD4 and CC-CKR-5 to infection by pseudotyped luciferase reporter virus (orders of magnitude) is 3 and 4. With “RANTES (from UniProt P13501 24-91) (ligand)”, the reduction of infection of HeLa cells expressing CD4 and CC-CKR-5 by macrophage-tropic virus; mixture of chemokines is 70% and 80%.

For “MIP-1β (from UniProt P13236 24-92) (ligand)”, the reduction of infection of HeLa cells expressing CD4 and CC-CKR-5 by macrophage-tropic virus; mixture of chemokines is 70% and 80%. On to “JRFL Env (macrophage-tropic HIV-1 envelope glycoprotein)”, for which the sensitivity of 293T cells co-expressing CD4 and CC-CKR-5 to infection by pseudotyped luciferase reporter virus (orders of magnitude) is 3 and 4.

As for “BaL Env (macrophage-tropic HIV-1 envelope glycoprotein)”, the sensitivity of 293T cells co-expressing CD4 and CC-CKR-5 to infection by pseudotyped luciferase reporter virus (orders of magnitude) is 3 and 4.

(Values after patent US7129055.)
